Data on two molecules can be found in patent publication US12465618B2, “Compositions and methods for degenerative disc regeneration” (University Health Network, priority 2015, dated 2025).

In one assay the test system is rat NP cells. Briefly: Western blotting of rat NP cells treated with IL-1β/TNFα with or without inhibitors or growth factors. The following applies: rat-tail NP cells treated with IL-1β and TNFα, Western blot, FIG. 5g-5h. It counts as cell-based. As to the method: After euthanasia, healthy rat lumbar/caudal spine IVDs, injured tail discs and bovine caudal IVD NPs were removed aseptically and the nucleus pulposus (NP) was removed separately and enzymatically digested according to methods established by the present inventors^16. Similarly, human degenerative disc NPs were enzymatically digested using Pronase (0.4%, 1 hr at 37° C.) followed by Collagenase II treatment (0.015%, O/N, 37° C.). The following day, the cells were filtered with a 70p cell strainer and cultured within a hypoxic incubator (NuAire, MN, USA) in 3.5% O2, 5% CO2, in Advanced Dulbecco's modified Eagle's medium (ADMEM) supplemented with 8% fetal bovine serum (FBS) and penicillin and streptomycin (100 U/mL). For treatments, the cells were either cultured in serum free ADMEM (no treatment controls) or treated with interleukin-1β (IL-1β, 10 ng/mL), tumor necrosis factor-alpha (TNFα, 50 ng/mL), connective tissue growth factor (CTGF, 10-100 ng/mL), Wnt-inducible soluble protein 2 (WISP2, 10-100 ng/mL) or transforming growth factor beta 1 (TGFβ1, 5-20 ng/mL) for various time points under hypoxic conditions.
Equal amounts of whole cell or tissue lysates prepared using RIPA lysis buffer were subjected to Western blotting as described earlier^18,19. Total lysates (30 μg) were resolved on 10% sodium dodecyl sulphate-polyacrylamide gels (SDS-PAGE) under reducing conditions and then proteins were electro-transferred onto polyvinyledendifluoride (PVDF) membranes (BioRad, CA). After blocking with 5% non-fat powdered milk in Tris-buffered saline (TBS, 0.1 M, pH=7.4), blots were incubated with rabbit or goat polyclonal/mouse monoclonal primary antibodies at 4° C. overnight. […] Blots were washed three times with TTBS for 15 minutes and protein bands were detected by the enhanced chemiluminescence method (BioRad, CA) on Kodak Hyperfilm.

Assay [1] has as its system rat-tail injured disc NPs. Briefly: Pre-clinical rodent needle puncture disc injury model of DDD, intra-discal injection. It counts as in vivo, Wistar rat. How it is done:
12-week old female Wistar rats (Charles River Laboratories International, Inc., MA, USA) were used in order to develop a pre-clinical rodent model of DDD and to evaluate the therapeutic potential of NCCM, CTGF and TGFβ1 in these pre-clinical rodent models. Experiments were performed in accordance with the Guide for the Care and Use of Laboratory Animals, and the experimental protocols were approved by the ethics approval board of Toronto Western Hospital, Toronto, ON, Canada. The surgical procedure was as follows: Anesthesia was achieved using isofluorane (5 L/min plus 1 L/min O2) and maintained at 3 L/min. Once deeply anaesthetized, the animal was affixed on a stereotactic procedure apparatus (Model 900, Kopf Instruments California USA) with nose cone inhalation. For animal experiments, the tail was shaved and prepped with isopropanol in a sterile manner. Fluoroscopy was used to visualize needle penetration and to ensure that the needle penetrated into the center of the NP. For disc injury, a 26-gauge (G), 35° beveled, 0.75 inches high needle (Hamilton Company, USA) mounted on a Hamilton syringe was used. The needle was advanced completely through the selected tail IVD to penetrate the full thickness inclusive of the annulus fibrosus on both sides of the disc. Confirmation of needle placement was made using fluoroscopy and maintained in position for 2 minutes, withdrawn halfway to the center of the NP and left there for 1 minute and then slowly withdrawn completely over a 1-minute period. The animals were then removed from the stereotactic apparatus and allowed to recover in a warmed cage. At the end of study period i.e. 72 hrs-10 weeks, animals were humanely euthanized using CO2 and each vertebral lumbar/caudal motion segment was dissected aseptically. IVDs were either fixed in formalin for histological analysis or the nucleus pulposus (healthy/injured) was harvested and lysed in RIPA buffer (50 mM Tris, pH=7.4, 150 mM NaCl, 1% NP-40 and protease inhibitor cocktail) for western blotting.
To determine the regenerative potential of NCCM, CTGF or TGFβ1, 4 IVDs per animal of 12 week old rats were injured using a 26G needle as described above. Four weeks post-injury, animals were randomized into groups of six and an intra-discal injection (˜8 μL) of either NCCM, CTGF (100 ng/mL) or TGFβ1 (10 ng/mL) was given under local anesthesia. For NCCM injected animals, the control group consisted of animals that received an intra-discal injection (˜8 μL) of Hybridoma culture medium only, while phosphate buffered saline (PBS, 1×, pH=7.2) served as control for CTGF and TGFβ1 injected animal groups. Six weeks later, the NPs from injured and control discs were harvested and either fixed in formalin for histological analysis or lysed in RIPA lysis buffer for western blotting. Each of this experiment was repeated independently to ensure reproducibility.
The tissues were fixed in 10% formalin and decalcified in 10% EDTA solution. The decalcified disc was initially split in the mid sagittal plane, embedded in paraffin and 5p thick sections were obtained for histological evaluation. Hemaetoxylin and eosin (H&E) and Safranin-O staining was performed to assess general morphology and proteoglycan content in these tissue sections as previously described^16. For immunohistochemistry/immunofluorescence (IF), paraffin-embedded sections (5 μm) of human degenerative disc NP, bovine NP, healthy canines (NCD) and rat (healthy/injured) discs were deparaffinized in xylene, hydrated in gradient alcohol followed by antigen retrieval in Tris-EDTA buffer (pH=9.0). The sections were incubated with hydrogen peroxide (0.3% v/v) in methanol for 15 minutes to quench the endogenous peroxidase activity, followed by blocking with 10% serum to preclude non-specific binding. Thereafter, the slides were incubated with either rabbit or goat polyclonal/mouse monoclonal primary antibodies overnight (O/N) at 4° C. […]

Assay [2] concerns bovine degenerative disc NP cells. Briefly: MTT cell viability assay. It counts as cell-based. The following applies: CTGF 100 ng/ml, TGFβ1 10 ng/ml, 48 hrs-72 hrs. As to the method:
(§1) Nucleus pulposus cells (rat, bovine and human) were plated in 96-well flat bottom plates in order to evaluate the effect of treatment with growth factors in cell viability and proliferation assays. Rat NP cells were treated with CTGF, WISP-2 and TGFβ1 in a dose (1 ng/mL-100 ng/mL) and time dependent manner (24 hrs-96 hrs) to determine the optimum dose and time for the assessment of these growth factors on viability. Cell viability was determined using 3-(4,5-dimethylthiazol-2-yl)-2,5-diphenyltetrazolium bromide (MTT, Sigma-Aldrich, USA) as previously described^44. A BrdU-ELISA (colorimetric) assay (Cat #ab126556, Abcam) was used for determining the effect of treatment with CTGF or TGFβ1 on human and rat NP cells (healthy/injured) following the manufacturer's instructions. Briefly, NP cells were treated with CTGF or TGFβ1 alone or in combination for 48 hrs following addition of BrdU reagent O/N in each well. Incorporated BrdU in DNA of proliferating cells was determined using anti-BrdU antibody and quantified by ELISA as per the manufacturer's instructions.
In general terms: Tetrazolium assays rely on reduction of a dye to a coloured formazan, in cell work by metabolically active cells.

In assay [3] the test system is rat-tail disc NP cells (healthy/injured). Description: MTT cell viability assay. It counts as cell-based. The note with it: CTGF 100 ng/ml, TGFβ1 10 ng/ml, 48 hrs-72 hrs. How it is done: as §1
For assay [4], the system named is human degenerative disc NP cells. Description: Caspase 9 Lumi-Glo assay, cytokine induced. It counts as cell-based. The note with it: 48 hrs. How it is done:
Apoptosis induced in NP cells (rat and human) as result of treatment with pro-inflammatory cytokines (IL-1β and TNFα) was determined using Caspase 3/7 and Caspase 9 specific Lumi-Glo assays (Promega, Madison). Briefly, NP cells were plated and treated with either IL-1β alone or in combination with TNFα only or in presence of CTGF and TGFβ1 for 48 hrs, followed by addition of specific reagents for Caspase 3/7 and Caspase 9 as per the manufacturer's instructions. Cells were incubated for another 4 hrs at 37° C., and plates were read in a multi-well luminescence plate reader.

The subject of assay [5] is human degenerated disc NP cells. Briefly: MTT cell viability assay. It counts as cell-based. As to the method:
as §1

The mark [6] stands for this setting: rat tail injured discs, western blots, FIG. 12(b).

B1: CTGF: Human recombinant connective tissue growth factor, Peprotech cat #120-19, identified in NCCM (protein, UniProt P29279 27-349, looked up)
CCN family member 2: QNCSGPCRCPDEPAPRCPAGVSLVLDGCGCCRVCAKQLGELCTERDPCDPHKGLFCHFGSPANRKIGVCTAKDGAPCIFGGTVYRSGESFQSSCKYQCTCLDGAVGCMPLCSMDVRLPSPDCPFPRRVKLPGKCCEEWVCDEPKDQTVVGPALAAYRLEDTFGPDPTMIRANCLVQTTEWSACSKTCGMGISTRVTNDNASCRLEKQSRLCMVRPCEADLEENIKKGKKCIRTPKISKPIKFELSGCTSMKTYRAKFCGVCTDGRCCTPHRTTTLPVEFKCPDGEVMKKNMMFIKTCACHYNCPGDNDIFESLYYRKMYGDMA
In the case of B1, the “expression of MMP-3, MMP-13 and Cox2 proteins in presence of growth factor” value in the assay on rat NP cells was “reduced expression”. Besides, in assay [1] (intra-discal injection four weeks following injury, 10 weeks post-injury, vs vehicle control), the “aggrecan and collagen II (immunohistochemical analysis)” value is recorded as “strong expression”. The “histological analysis, Safranin-O staining of NP” value in assay [1] (intra-discal injection four weeks following injury, CTGF 100 ng/mL, TGFβ1 10 ng/mL, 10 weeks post-injury, vs PBS) is “healthy disc, rich in NCs”. Further, in assay [1] (setting [6]), the “expression of MMP-13 and Cox2 in NP tissue lysates” value is “decreased expression”; the “stem cell marker Oct4 in NP tissue lysates” value is recorded as “restoration”. Further, the “cell viability (MTT)” value in assay [2] is reported as “increased the viability”. In assay [3], the “cell viability (MTT)” value is “increased the viability”. Besides, the “IL-1β and TNFα induced caspase 9 activity” value in assay [4] is “significant reduction”.

B2: WISP-2: Human recombinant Wnt-inducible soluble protein 2, Peprotech, identified in NCCM (protein, UniProt O76076 24-250, looked up)
CCN family member 5: QLCPTPCTCPWPPPRCPLGVPLVLDGCGCCRVCARRLGEPCDQLHVCDASQGLVCQPGAGPGGRGALCLLAEDDSSCEVNGRLYREGETFQPHCSIRCRCEDGGFTCVPLCSEDVRLPSWDCPHPRRVEVLGKCCPEWVCGQGGGLGTQPLPAQGPQFSGLVSSLPPGVPCPEWSTAWGPCSTTCGLGMATRVSNQNRFCRLETQRRLCLSRPCPPSRGRSPQNSAF
Take B2: the “expression of MMP-3, MMP-13 and Cox2 proteins in presence of growth factor” value in the assay with rat NP cells was “reduced expression”. The “cell viability (MTT)” value in assay [5] and in assay [3] was “no significant change” throughout. Moreover, the “IL-1β and TNFα induced caspase 9 activity” value in assay [4] was “significant reduction”.
